Molecular target: thrombin (UniProt P00734;P00734 328-363;364-622)
Experiment: competition

GGTTGGTGTGGTTGGTTT (structured_DNA) [thrombin aptamer (TA)]: binds.
